Assay results reported in patent US20200102374A1 (VIB VZW, published 2020).

Tests used:
[1] = target: F protein of RSV A2 virus (respiratory syncytial virus A2, UniProt P03420 26-574); test: cell-based or functional assay
[2] = target: F protein of RSV B49 virus (respiratory syncytial virus B49); test: cell-based or functional assay

Sequence of F protein of RSV A2 virus (P03420 26-574): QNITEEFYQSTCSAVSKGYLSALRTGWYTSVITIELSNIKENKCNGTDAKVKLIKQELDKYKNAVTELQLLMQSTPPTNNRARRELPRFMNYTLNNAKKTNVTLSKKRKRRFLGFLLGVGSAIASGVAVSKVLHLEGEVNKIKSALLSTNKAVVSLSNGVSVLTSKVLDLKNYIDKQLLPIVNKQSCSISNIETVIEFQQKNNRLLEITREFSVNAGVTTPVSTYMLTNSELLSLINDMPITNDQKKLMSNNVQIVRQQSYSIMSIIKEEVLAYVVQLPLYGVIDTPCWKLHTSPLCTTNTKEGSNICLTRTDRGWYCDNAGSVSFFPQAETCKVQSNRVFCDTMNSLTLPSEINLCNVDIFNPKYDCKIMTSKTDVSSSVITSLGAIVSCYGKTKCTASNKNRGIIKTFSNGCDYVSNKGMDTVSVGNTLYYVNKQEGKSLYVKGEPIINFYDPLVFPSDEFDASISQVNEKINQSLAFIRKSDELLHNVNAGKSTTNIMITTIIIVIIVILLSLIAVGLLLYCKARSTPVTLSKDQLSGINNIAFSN

B1: VHH-DS-Cav1-L66 (VHH)
VHH: QVQLQESGGGLVQPGGSLRLSCAASGFTLDYYYIGWFRQAPGKEREGVSCISSSHGSTYYADSVKGRFTISRDNAKNTVYLQMNSLKPEDTAVYYCATVAVAHFRGCGVDGMDYWGKGTQVTVSS
B1 was tested, and the “IC50 of in vitro neutralization of RSV A2 (plaque reduction on Vero cells)” value [1] was 0.032 nM and the “IC50 of neutralization of RSV B49 (plaque reduction on Vero cells)” value [2] was 0.032 nM.

B2: VHH-DS-Cav1-4 (VHH)
VHH: QVQLQESGGGLVQPGGSLRLSCAASGFTLDYYYIGWFRQAPGKEREAVSCISGSSGSTYYPDSVKGRFTISRDNAKNTVYLQMNSLKPEDTAVYYCATIRSSSWGGCVHYGMDYWGKGTQVTVSS
B2 was tested, and the “IC50 of in vitro neutralization of RSV A2 (plaque reduction on Vero cells)” value [1] was 0.021 nM and the “IC50 of neutralization of RSV B49 (plaque reduction on Vero cells)” value [2] was 0.015 nM.
